Measured values as given in the supplement of paper PMC6755084.

B1: minF1; a variant is named by its letters at N, in order (parent)
chain: GAGACCGCAACTGAAAAGTTGTTNNNNAANNNNGGNTNNATTTCTGCACGTAGAAGCAAAAGGC
B2: F1*; the commonest letter at each place (parent)
chain: GAGACCGCAACTGAAAAGTTGTTATCACTTGTCGTAAGACACTTTGGATGGGTTGAAGTTCTGCACGTAGAAGCAAAAGGC

Variants of: B1
Assay: fraction ligated after 30 min (ligated reads / total reads); higher = more ligase activity
Settings: with F1*subA RNA substrate (template-directed ligation), 42 °C
Description: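 Chip-synthesised pool of minF1 ligase ribozyme variants (single and double substitutions, single to quadruple deletions, bulge and P2 designed variants) was transcribed with T7 and reacted as a pool with excess substrate F1*subA for 30 min at 42 C in 50 mM EPPS pH 8.5, 25 mM MgCl2. Ligated and unligated RNAs were separated by PAGE, barcoded by RT and deep sequenced; fraction ligated = ligated reads / total reads, relative activity = FL / FL of wild-type minF1 (0.76); sequencing FL correlated with PAGE (R2 = 0.98). Sequences are the DNA template of the ribozyme.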

Row | Variant | fraction ligated
1 | AAGAGATGTGA A29G | 0.00367
2 | CAGATGGGTGA | 0.00455
3 | TAGAGGTGTGA | 0.00375
4 | TCAATGGAGTT G34T T37G | 0.00235
5 | ACAAGGATTGA | 0.00332
6 | TCAATGGATGA | 0.00193
7 | AAGATATGTGA | 0.00183
8 | CAGATGGATGA T23A | 0.00203
9 | CAGAGGATTGA T23A A29T | 0.00274
10 | TAGATGGAGTA G34T | 0.00584
11 | TCAATGGATGA T23A | 0.00363
12 | GAAAGATGTGA T23A A28T A29G | 0.00194
13 | ACAATGGAGTG | 0.00309
14 | ACAATGGAGTA | 0.00362
15 | CAGAGGATGTA A29T | 0.00385
16 | CAGATGGGTGA T23A | 0.00475
17 | AAGATGGAGTA G34T | 0.00267
18 | AAGAGGATGTG A29T | 0.00669
19 | TAGATGGAGTG T23A | 0.00424
20 | CAAAGATGTGA T23A A28T A29G | 0.0035
21 | TCAAGGATGTA T23A A29T | 0.00242
22 | ACAAGGAGTGA | 0.00357
23 | TCAAGATGTGA T23A A29G | 0.00178

Row | Variant | fraction ligated
24 | TCAAGATGTGA T23A A29T | 0.00239
25 | TCAAGATGTGA | 0.00179
26 | TAGATGGAGTT T23A G34T T37G | 0.000868
27 | CAAAGGATGTG T23A A29T | 0.00761
28 | TAGATGGAGTA | 0.00154
29 | TAGATGGAGTG | 0.00279
30 | ACAATGATTGA | 0.00348
31 | ACAAGGATTGA A29T | 0.00464
32 | CAGAGGAGTGA T23A | 0.00148
33 | TCAATGGAGTA G34T | 0.0216
34 | TAGAGGAGTGA A29T | 0.00156
35 | TCAATGGAGTA T23A G34T | 0.0178
36 | AAAAGATGTGA T23C A28T A29G | 0.00238
37 | CAGATGGAGTG G34T | 0.0137
38 | TCAAGGATTGA T23A | 0.00297
39 | TAGATGGTTGA | 0.00065
40 | TCAATGATGTA | 0.00254
41 | TCAATGATGTG | 0.0049
42 | TCAATGGAGTG T23A G34T | 0.0342
43 | AAAAGGATGTG A29T | 0.00334
44 | AAAAGGAGTGA A29T | 0.00356
45 | TAGATGGAGTG G34T | 0.0121
46 | CAGAGATGTGA A29T | 0.00205

Row | Variant | fraction ligated
47 | CAGAGATGTGA A29G | 0.00315
48 | TCAATGGGTGA T23A | 0.00158
49 | TAGATGATGTA T23A | 0.00397
50 | CAGAGGAGTGA T23A A29T | 0.000641
51 | CAGATGAGTGA | 0.00146
52 | CAGATGGAGTT G34T T37G | 0.0026
53 | CAAAGGATGTA T23A A29T | 0.000678
54 | ACAAGGTGTGA | 0.00367
55 | AAAAGGTGTGA A29T | 0.00306
56 | TAGAGGTGTGA A29T | 0.00319
57 | ACAAGATGTGA | 0.00207
58 | CAGATGTGTGA | 0.00342
59 | AAGAGATGTGA | 0.00157
60 | TAGATGGTTGA T23A | 0.00325
61 | TCAAGGATGTG T23A | 0.00539
62 | TAAAGATGTGA A28T A29G | 0.00323
63 | TCAAGGATGTA A29T | 0.00204
64 | TAAAGGATGTA A29T | 0.00265
65 | CAGAGGATGTA T23A | 0.00339
66 | TAAAGGTGTGA T23A A29T | 0.00275
67 | AAAAGGATTGA A29T | 0.00197
68 | AAGATGGAGTG | 0.00495
69 | AAGATGGAGTA | 0.00181

Row | Variant | fraction ligated
70 | TAGATGGAGTA T23A G34T | 0.0029
71 | CAGAGGTGTGA A29T | 0.00368
72 | TAGATGGTGTG T23A | 0.00451
73 | TCAATGGGTGA | 0.00124
74 | CAGATGGTGTG | 0.00377
75 | CAGATGGTGTA | 0.00171
76 | TCAATGGAGTT G34T T37G A40G | 0.00127
77 | CAGAGATGTGA A28T A29G | 0.00451
78 | AAAAGGATGTA A29T | 0.00276
79 | CAAAGGAGTGA A29T | 0.00216
80 | CAAAGATGTGA T23A A29T | 0.00168
81 | CAAAGATGTGA T23A A29G | 0.00234
82 | ACAATGGAGTT G34T T37G | 0.00166
83 | TCAATATGTGA T23A | 0.00157
84 | TAGAGATGTGA T23A A29T | 0.00334
85 | TAGAGATGTGA T23A A29G | 0.00131
86 | CAGATGATTGA | 0.0023
87 | TCAAGGTGTGA A29T | 0.00119
88 | ACAATGAGTGA | 0.000748
89 | CAGAGGATGTG T23A A29T | 0.0132
90 | CAGATGATGTA T23A | 0.00233
91 | TAGATATGTGA T23A | 0.00255
92 | TAGATGATTGA | 0.00145

Row | Variant | fraction ligated
93 | AAGATGGGTGA | 0.00372
94 | TAAAGGATGTG T23A A29T | 0.00674
95 | GAAAGATGTGA A28T A29G | 0.00247
96 | TAGAGGATGTA A29T | 0.00262
97 | TAGATGGTGTA T23A | 0.00161
98 | TCAAGGTGTGA T23A | 0.00305
99 | TAGAGATGTGA | 0.00183
100 | TAGATGGAGTT G34T T37G | 0.00107
101 | ACAAGGAGTGA A29T | 0.00407
102 | TCAATGATGTG T23A | 0.00503
103 | TCAAGGATGTA | 0.0017
104 | TCAAGGATGTG | 0.00569
105 | TAGATGGAGTT T23A G34T T37G A40G | 0.00177
106 | CAGAGGAGTGA | 0.0058
107 | ACAATGGATGA | 0.00232
108 | AAAAGATGTGA A28T A29G | 0.00466
109 | AAGATGGAGTT G34T T37G A40G | 0.0006
110 | CAGATGTGTGA T23A | 0.00226
111 | CAGATATGTGA | 0.00323
112 | CAGAGATGTGA T23A A29T | 0.00283
113 | CAGAGATGTGA T23A A29G | 0.00348
114 | CAGATGGTTGA | 0.000297

Variants of: B2
Assay: fraction ligated after 30 min (ligated reads / total reads); higher = more ligase activity
Settings: with F1*sub RNA substrate (template-directed ligation), 42 °C
Summary of the method: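 The ligase ribozyme variants were produced by PCR amplification of oligo-pool templates, T7 transcription and purification on gel. Their ligated and unligated forms were gel-separated, then reverse transcribed with barcoded primers before MiSeq sequencing. Core bases were filtered at a quality of ≥20, and fraction ligated per variant was ligated reads over total reads.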

Row | Variant | fraction ligated
115 | G55A A57G | 0.833
116 | G55A A57T | 0.801
117 | G55C A56G | 0.843
118 | G55C A56T | 0.737
119 | G55C A56C | 0.218
120 | G55C A56G A57C | 0.104
121 | G55C A56G A57G | 0.0448
122 | G55C A56G A57T | 0.0232
123 | G55T A56T A57G | 0.0103
124 | G55T A56T A57T | 0.0137
125 | G55T A56T A57C | 0.00568
126 | G55C A56C A57G | 0.0246
127 | G55C A56C A57T | 0.0335
128 | G55C A56C A57C | 0.0245
129 | unchanged | 0.826
130 | A56G A57C | 0.748
131 | A56G A57G | 0.807
132 | A56G A57T | 0.383
133 | G55C A57T | 0.632
134 | G55C A57C | 0.412
135 | G55C A57G | 0.773
136 | A56T A57T | 0.454
137 | A56T A57G | 0.217
138 | A56T A57C | 0.0772
139 | G55T A57C | 0.717
140 | G55T A57T | 0.794
141 | G55T A57G | 0.791

Row | Variant | fraction ligated
142 | G58A | 0.851
143 | G58C | 0.767
144 | G58T | 0.834
145 | G55T A56G A57C | 0.0609
146 | G55T A56G A57G | 0.0371
147 | G55T A56G A57T | 0.0243
148 | G55T | 0.83
149 | G55C | 0.778
150 | A56T | 0.803
151 | A56C | 0.767
152 | A56G | 0.781
153 | A56C A57T | 0.77
154 | A56C A57G | 0.0212
155 | A56C A57C | 0.447
156 | G55T A56C A57G | 0.00397
157 | G55T A56C A57T | 0.0111
158 | G55T A56C A57C | 0.00348
159 | G55T A56T | 0.378
160 | G55T A56C | 0.014
161 | G55T A56G | 0.806
162 | G55C A56T A57C | 0.00477
163 | G55C A56T A57G | 0.0294
164 | G55C A56T A57T | 0.0179
165 | A57T | 0.844
166 | A57G | 0.822
167 | A57C | 0.814
